Laboratory results published in patent US20240182536A1 (MURAL ONCOLOGY, published 2024).

Columns and labels:
[1] = biological target: T1, IL-18 binding protein (IL-18BP) (UniProt O95998 31-194); assay: cell-based or functional assay
T1 sequence (looked up): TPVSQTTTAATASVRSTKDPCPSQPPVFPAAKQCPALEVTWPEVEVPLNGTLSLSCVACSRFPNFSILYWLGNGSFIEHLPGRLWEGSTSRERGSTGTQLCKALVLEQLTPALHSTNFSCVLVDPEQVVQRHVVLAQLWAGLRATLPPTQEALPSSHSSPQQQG

[2] = biological target: T2, IL-18 receptors on HEK-Blue IL-18 reporter cells (UniProt Q13478 19-541; O95256 20-599, limits assumed); assay: cell-based or functional assay
T2 sequence (looked up) 1: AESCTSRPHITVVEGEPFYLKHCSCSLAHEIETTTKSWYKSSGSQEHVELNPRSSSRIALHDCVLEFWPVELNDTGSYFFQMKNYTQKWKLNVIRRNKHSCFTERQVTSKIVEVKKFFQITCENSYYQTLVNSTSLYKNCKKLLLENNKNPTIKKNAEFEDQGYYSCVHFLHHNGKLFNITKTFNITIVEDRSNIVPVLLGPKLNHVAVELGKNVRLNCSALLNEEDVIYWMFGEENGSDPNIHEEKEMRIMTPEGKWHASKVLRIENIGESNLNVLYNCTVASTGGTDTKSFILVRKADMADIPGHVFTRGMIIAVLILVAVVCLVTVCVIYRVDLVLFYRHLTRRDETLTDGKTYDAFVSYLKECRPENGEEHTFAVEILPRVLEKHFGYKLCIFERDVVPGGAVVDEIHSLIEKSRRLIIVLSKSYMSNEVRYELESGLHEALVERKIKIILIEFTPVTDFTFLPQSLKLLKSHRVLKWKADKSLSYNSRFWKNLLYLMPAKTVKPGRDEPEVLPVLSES
T2 sequence (looked up) 2: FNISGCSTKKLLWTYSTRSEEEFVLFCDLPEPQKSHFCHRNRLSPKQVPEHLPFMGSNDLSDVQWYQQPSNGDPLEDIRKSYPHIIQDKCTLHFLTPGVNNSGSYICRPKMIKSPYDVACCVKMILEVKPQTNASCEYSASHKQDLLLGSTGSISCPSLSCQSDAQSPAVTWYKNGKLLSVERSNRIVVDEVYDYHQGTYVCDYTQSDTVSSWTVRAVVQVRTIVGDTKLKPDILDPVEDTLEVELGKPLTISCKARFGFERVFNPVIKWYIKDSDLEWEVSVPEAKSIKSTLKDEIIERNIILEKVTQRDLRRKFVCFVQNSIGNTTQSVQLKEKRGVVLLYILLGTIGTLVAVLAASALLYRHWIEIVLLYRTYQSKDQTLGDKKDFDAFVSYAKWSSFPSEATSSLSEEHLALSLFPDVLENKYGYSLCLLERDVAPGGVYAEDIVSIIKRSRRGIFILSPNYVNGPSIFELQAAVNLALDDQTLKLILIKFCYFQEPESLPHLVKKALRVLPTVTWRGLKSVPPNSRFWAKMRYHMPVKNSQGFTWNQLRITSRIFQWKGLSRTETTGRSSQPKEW

B1: IL-18 variant G3P, E6K, K53T, D54Y, S55V, T63I, N91I (ligand)
chain: YFPKLKSKLSVIRNLNDQVLFIDQGNRPLFEDMTDSDMRDNAPRTIFIISMYTYVQPRGMAVIISVKSEKISTLSSENKIISFKEMNPPDIIKDTKSDIIFFQRSVPGHDNKMQFESSSYEGYFLASEKERDLFKLILKKEDELGDRSIMFTVQNED
[1]
  Activity, +100 nM BP, DF-1000002: 0.32
  Activity, +100 nM BP, DF-5000003: 0.11
  Activity, +100 nM BP, DF-25000004: 0.08
  Ratio (-BP/+BP), DF-1000005: 0.81
  Ratio (-BP/+BP), DF-5000006: 1.01
  Ratio (-BP/+BP), DF-25000007: 0.93
[2]
  Activity, No BP, DF-100000: 0.26
  Activity, No BP, DF-500000: 0.11
  Activity, No BP, DF-2500000: 0.07

B2: IL-18 variant G3Q, E6N, K53T, D54A, N91K, R104P (ligand)
chain: YFQKLNSKLSVIRNLNDQVLFIDQGNRPLFEDMTDSDMRDNAPRTIFIISMYTASQPRGMAVTISVKSEKISTLSSENKIISFKEMNPPDKIKDTKSDIIFFQPSVPGHDNKMQFESSSYEGYFLASEKERDLFKLILKKEDELGDRSIMFTVQNED
[1]
  Activity, +100 nM BP, DF-1000002: 0.07
  Activity, +100 nM BP, DF-5000003: 0.09
  Activity, +100 nM BP, DF-25000004: 0.08
  Ratio (-BP/+BP), DF-1000005: 1.03
  Ratio (-BP/+BP), DF-5000006: 0.89
  Ratio (-BP/+BP), DF-25000007: 0.95
[2]
  Activity, No BP, DF-100000: 0.07
  Activity, No BP, DF-500000: 0.08
  Activity, No BP, DF-2500000: 0.07

B3: IL-18 variant G3P, E6N, D54Y, T63S, N91S, R104Q (ligand)
chain: YFPKLNSKLSVIRNLNDQVLFIDQGNRPLFEDMTDSDMRDNAPRTIFIISMYKYSQPRGMAVSISVKSEKISTLSSENKIISFKEMNPPDSIKDTKSDIIFFQQSVPGHDNKMQFESSSYEGYFLASEKERDLFKLILKKEDELGDRSIMFTVQNED
[1]
  Activity, +100 nM BP, DF-1000002: 0.25
  Activity, +100 nM BP, DF-5000003: 0.1
  Activity, +100 nM BP, DF-25000004: 0.08
  Ratio (-BP/+BP), DF-1000005: 0.86
  Ratio (-BP/+BP), DF-5000006: 1.02
  Ratio (-BP/+BP), DF-25000007: 0.89
[2]
  Activity, No BP, DF-100000: 0.21
  Activity, No BP, DF-500000: 0.1
  Activity, No BP, DF-2500000: 0.07

B4: IL-18 variant G3P, E6K, K53N, D54S, S55P, T63S, N91S, R104Q (ligand)
chain: YFPKLKSKLSVIRNLNDQVLFIDQGNRPLFEDMTDSDMRDNAPRTIFIISMYNSPQPRGMAVSISVKSEKISTLSSENKIISFKEMNPPDSIKDTKSDIIFFQQSVPGHDNKMQFESSSYEGYFLASEKERDLFKLILKKEDELGDRSIMFTVQNED
[1]
  Activity, +100 nM BP, DF-1000002: 0.07
  Activity, +100 nM BP, DF-5000003: 0.07
  Activity, +100 nM BP, DF-25000004: 0.07
  Ratio (-BP/+BP), DF-1000005: 0.92
  Ratio (-BP/+BP), DF-5000006: 1.03
  Ratio (-BP/+BP), DF-25000007: 0.95
[2]
  Activity, No BP, DF-100000: 0.07
  Activity, No BP, DF-500000: 0.08
  Activity, No BP, DF-2500000: 0.07

B5: IL-18 variant G3P, E6G, D54P, S55W, N91E, R104K (ligand)
chain: YFPKLGSKLSVIRNLNDQVLFIDQGNRPLFEDMTDSDMRDNAPRTIFIISMYKPWQPRGMAVTISVKSEKISTLSSENKIISFKEMNPPDEIKDTKSDIIFFQKSVPGHDNKMQFESSSYEGYFLASEKERDLFKLILKKEDELGDRSIMFTVQNED
[1]
  Activity, +100 nM BP, DF-1000002: 0.09
  Activity, +100 nM BP, DF-5000003: 0.1
  Activity, +100 nM BP, DF-25000004: 0.07
  Ratio (-BP/+BP), DF-1000005: 0.98
  Ratio (-BP/+BP), DF-5000006: 0.84
  Ratio (-BP/+BP), DF-25000007: 0.92
[2]
  Activity, No BP, DF-100000: 0.09
  Activity, No BP, DF-500000: 0.08
  Activity, No BP, DF-2500000: 0.07

B6: IL-18 variant G3R, E6D, D54A, S55Q, T63S, N91K, R104P (ligand)
chain: YFRKLDSKLSVIRNLNDQVLFIDQGNRPLFEDMTDSDMRDNAPRTIFIISMYKAQQPRGMAVSISVKSEKISTLSSENKIISFKEMNPPDKIKDTKSDIIFFQPSVPGHDNKMQFESSSYEGYFLASEKERDLFKLILKKEDELGDRSIMFTVQNED
[1]
  Activity, +100 nM BP, DF-1000002: 0.07
  Activity, +100 nM BP, DF-5000003: 0.08
  Activity, +100 nM BP, DF-25000004: 0.07
  Ratio (-BP/+BP), DF-1000005: 0.98
  Ratio (-BP/+BP), DF-5000006: 0.98
  Ratio (-BP/+BP), DF-25000007: 0.96
[2]
  Activity, No BP, DF-100000: 0.07
  Activity, No BP, DF-500000: 0.08
  Activity, No BP, DF-2500000: 0.07

B7: IL-18 variant E6N, D54N, S55N, N91H, R104P (ligand)
chain: YFGKLNSKLSVIRNLNDQVLFIDQGNRPLFEDMTDSDMRDNAPRTIFIISMYKNNQPRGMAVTISVKSEKISTLSSENKIISFKEMNPPDHIKDTKSDIIFFQPSVPGHDNKMQFESSSYEGYFLASEKERDLFKLILKKEDELGDRSIMFTVQNED
[1]
  Activity, +100 nM BP, DF-1000002: 0.08
  Activity, +100 nM BP, DF-5000003: 0.08
  Activity, +100 nM BP, DF-25000004: 0.09
  Ratio (-BP/+BP), DF-1000005: 0.99
  Ratio (-BP/+BP), DF-5000006: 0.93
  Ratio (-BP/+BP), DF-25000007: 0.78
[2]
  Activity, No BP, DF-100000: 0.08
  Activity, No BP, DF-500000: 0.07
  Activity, No BP, DF-2500000: 0.07

B8: IL-18 variant G3P, E6S, K53R, D54Y, S55P, T63I, N91K (ligand)
chain: YFPKLSSKLSVIRNLNDQVLFIDQGNRPLFEDMTDSDMRDNAPRTIFIISMYRYPQPRGMAVIISVKSEKISTLSSENKIISFKEMNPPDKIKDTKSDIIFFQRSVPGHDNKMQFESSSYEGYFLASEKERDLFKLILKKEDELGDRSIMFTVQNED
[1]
  Activity, +100 nM BP, DF-1000002: 0.14
  Activity, +100 nM BP, DF-5000003: 0.08
  Activity, +100 nM BP, DF-25000004: 0.07
  Ratio (-BP/+BP), DF-1000005: 1.07
  Ratio (-BP/+BP), DF-5000006: 0.97
  Ratio (-BP/+BP), DF-25000007: 0.99
[2]
  Activity, No BP, DF-100000: 0.15
  Activity, No BP, DF-500000: 0.08
  Activity, No BP, DF-2500000: 0.07

B9: IL-18 variant G3P, E6R, K53T, D54Y, S55I, T63V, N91G, R104K (ligand)
chain: YFPKLRSKLSVIRNLNDQVLFIDQGNRPLFEDMTDSDMRDNAPRTIFIISMYTYIQPRGMAVVISVKSEKISTLSSENKIISFKEMNPPDGIKDTKSDIIFFQKSVPGHDNKMQFESSSYEGYFLASEKERDLFKLILKKEDELGDRSIMFTVQNED
[1]
  Activity, +100 nM BP, DF-1000002: 0.15
  Activity, +100 nM BP, DF-5000003: 0.08
  Activity, +100 nM BP, DF-25000004: 0.07
  Ratio (-BP/+BP), DF-1000005: 0.93
  Ratio (-BP/+BP), DF-5000006: 0.96
  Ratio (-BP/+BP), DF-25000007: 0.99
[2]
  Activity, No BP, DF-100000: 0.14
  Activity, No BP, DF-500000: 0.08
  Activity, No BP, DF-2500000: 0.07
